Assay results: the nanobody polyreactivity screen of Harvey et al. (2022)

Assay: yeast display, Sf9 membrane polyspecificity reagent, FACS + sequencing; frameworks hold sequencing errors
Summary of the method: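 Using colony PCR, genes from sorted yeast display clones were amplified, then sequenced on MiSeq at 2 × 250 and filtered by CDR length. The clones had been stained with 10% biotinylated, detergent-solubilized Sf9 membrane reagent for 1 hour at 4 °C and sorted by FACS into low and high (top ~1%) gates on anti-HA and streptavidin fluorescence. Polyreactivity labels come from the gate of origin.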

QVQLVESGGGLVQAGGSLRLSCAASGITFRFNAMGWYRQAPGKEREFVAAITYSGDSTYYADSVKGRFTISRDNAKNTVYLQMNSLKPEDTAVYYCAADASSKLYDYWGQGTQVTVSS
polyreactivity (PSR sort gate): low polyreactivity

QVQLVESRGGLVQAGGSLRLSFAASGSNFGAYAMVWYRQAPGKERELVAGITGSGGTTYYADSVKGRFTISRDNGKNTVYLQMNSLTPEDTAVYDCAKRVWVRYYYWGQGTQVTVSS
polyreactivity (PSR sort gate): high polyreactivity

QVQLVESGGGLVQAGGSLRLSCAASGSTFWANAMGWYRPAPGKERELVAGITWNAGSTYYADSVKGRFTISRDNAKNTVYLQMNSLKPEDTAVYYCAAYYHFQGWGPGYNSWGQGTQVTVSS
polyreactivity (PSR sort gate): low polyreactivity

QVQLVESGGGLVQAGGSLRLSCDAAGLIFRLNAMGWYRPAPGKERELVAAISFSGGGTYYADSVKGRFTISRDNAKNTVYLQMNSLKPEDTAVYFCAADEYAVYYYYNYEYWGQGTQVTVSS
polyreactivity (PSR sort gate): high polyreactivity

QVQLVESGGGLVQAGGSLRLSSAASGSTFRYNTMGWYRQAPGKERELVAAINISSSSTYYADSVKGRFTISRDNAKNTVYFQINSLKPEDTAVYYCAKRDYVPIATDENDDYWGQGTQVTVSS
polyreactivity (PSR sort gate): low polyreactivity

QVQLVESGGGLVQAGGSLRLSCAASGSTFNKYAMGWYRQAPGKERELVAAIRSNGVRTYYADSVKGRFTISRDNAKNTVYLQMNSLKPEDTAVYYCNKRYTYRYDYWGQGTQVTVSS
polyreactivity (PSR sort gate): high polyreactivity

QVQLVESGGGLVQAGGSLRLSCASSGRIFFKYAMGWYRQARGKERELLATITWRGSSTYYADSVKWRFTISRDNAKNTVYFQMNSLKPEDTAVYYCAAVAAWWYHQGVRYDYWGQGSQVTVSS
polyreactivity (PSR sort gate): high polyreactivity

QVHLVESGGGLVQAGGSLRLSFAASGRTFSTNAMGWYRQAPGKERELVAAISSTGGRTYYADSVKGRFTISRDNAKNTVYLQMNSLKPEDTAVYYCNTKLKGKGEGFDYWGQGTQVTVSS
polyreactivity (PSR sort gate): high polyreactivity

QVQLVESGGGLVQAGGSLRLSCDASGSTFVGYTMGWYRQAPGKERELVAAITWRGGITYYADSVKGLFTISRDNAKNTVYLQMKSLKPEDTAVYYCAGARYRHGRSGTYDVTGEYWGQGTQVTVSS
polyreactivity (PSR sort gate): high polyreactivity

QVQLVESGGGLVQAGGSLRLSCAASGSTFYYNAMGWYRQAPGKERELVAAITFTGGSTYADSVKGRFTISRDNAKNTVYLQMNSLKPEDTAVFYCAATIQGHDYLGTGYDYWGQGTQVTVSS
polyreactivity (PSR sort gate): low polyreactivity

QVQLVESGGGLVQAGGSLRLSCAASGIIISVYALGWYRQAPGKERELVATISLSSGRTYYADSVKGRFTISRDNAKNTVYFQMNCLKPEDTAVYYCNAGGRTASRRYYWGQGTQVTVSS
polyreactivity (PSR sort gate): low polyreactivity

QVQLVESGGCLVQAGGSLRLSCAAYGSIFGGNAMGWYRQAPRKERELVAAITQSGDRTYYADSVKGRFTISRDNANNTFYFQMNSLKPEDTAVYYSAARSPRKYGSIGYYWGQGTQVTVSS
polyreactivity (PSR sort gate): high polyreactivity

QVQLVESGGGLVQAGGSLRLSCAASGFIFSIYVMGWYRQAPGKERELVATISSTGSTNYADSVKGRFTISRDNAKNTVYLQMNSLKPEDTAVYYCAAYRRWWGQGTQVTVSS
polyreactivity (PSR sort gate): high polyreactivity

QVQLVESGGGLVQAGGSLRLSCAASGFIFRRYAMGWYRQAPGKERELVAAIRWDDGNTYYADSVKGRFTISRDNAKNTVYLQMNSLKPEDTAVYYCNADKWSSTDDWLYDYWGQGTQVTVSS
polyreactivity (PSR sort gate): low polyreactivity

QVQLVESGGGLVQAGGSLRLSCAASGFISAYYAMGWYRQAPGKEMELVAAISWNGGRTFYADSVKGRFTISRDNAKNTVYLQMNSLKPEDTAVYYCAADGRLRGYGYWGQGTQVTVSS
polyreactivity (PSR sort gate): high polyreactivity

QVQLVESGGGLVQAGGSLSLSWAASGSTFFNNAMGWYRQAPGKERELVAGISYGCGRTYYADSVKGRFTISRDNAKNTVFLQMNSLKPEDTAVYYCNTVTSPAPYYSYDRYYWGQGTQVTVSS
polyreactivity (PSR sort gate): high polyreactivity

QVQLVESGGGLVQAGGSLRLSCAASGRTFVIYAMGWYRQAPGKASELVAGIDSGTSTYADSVKGRFTISRDNAKNTVYLQMNSLKPEDTAVYYCAADFAPDGSGWYIPGDYDSWGQGTQVTVSS
polyreactivity (PSR sort gate): low polyreactivity

QVQLVESGGGLVQAGGSLRLSCAASGRTISHNAMGWYRQPPGKESELVAAISSGGGSTYYGDSVKGRFTISRDNAKNTVYVQMNSLKPEDTAVYYCAAPSYGRSRGFGLGINKYDYWGQGTQVTVSS
polyreactivity (PSR sort gate): high polyreactivity

QVQLVESGGGLVQAGGSLRLSCAASGITLFGYAMGWYRQAPGKERELVAGISRRGGSTYYADSVKGRFTISRDNAKNTVYLQMNSLKPEDTAVYYCAAVYVQPPATAQHYYYWGQGTQVTVSS
polyreactivity (PSR sort gate): high polyreactivity

QVQLVESGGGLVQAGGSLRLSCAASGSIFVLYAMGWYRKAPGKERELVAAISRGVGGTNYADSVKGRFTISRDNAKITVYLQMNSLKPEDTAVYYCAAQTLRWSHYYYWGQGTQVTVSS
polyreactivity (PSR sort gate): high polyreactivity

HVQLVESGGGLVQAGGSLRLSCAASGRTFFRYVMGWYRQAPGKERELVAAISRSGGSTYYADSVKGRFTISRDNAKNTFYLQMNSLKPEDTAVYYCAASAGPRASYYYWGQGTQVTVSS
polyreactivity (PSR sort gate): high polyreactivity

QVQLVESGGGLVQAGGSLRLSCAASGRTFTSYAMGWYRQAPGKEREFVAAITTSGGSTYYTDSVKGRFTISRDNAKNTVYLQMNSLKPEDTAVYYCAAYVAYDRSGQYDYWGQGTQVTVSS
polyreactivity (PSR sort gate): high polyreactivity

QVQLVESGGGLVQAGGSLRLSCAASGITLYYYAMGWYRQAPGKERELVAAISTSGGTTYYADSVKGRFTISRDNAKYTVYLQMNSLKPEDTAVYYCAARRRAFGSTYNYWGQGTQVTVSS
polyreactivity (PSR sort gate): high polyreactivity

QVQLVESGGGLVQAGGILRLSCAASGLIFNYYAMGWYRQAPGKERELVADITRGGSTNYADSVKGRFTISRDNANFTVYVQMNSMKPEDSAVYYCAARVRGWWYRYDYWGHGTQVTVSS
polyreactivity (PSR sort gate): high polyreactivity

QVQLVESGGGLVQAGGSLRLSCAASGSIFLHNAMGWYRQAPGTERELVAGITSSGTSTYYADSVKGRFTISRDIAKNTVYLQMNSLKPEDTAVYYCAAYRYGSRGGYWGQGTHVTVSS
polyreactivity (PSR sort gate): high polyreactivity

QVQLVESGGGLVQAGGSLRLSCAASGIIFSGYAMGWYRQAPGKERELVAAITWGGGSTYYADSVKGRFTISRDNAKNTVYLQMNSLKPEDTAVYYCAATWWYEHVRYYSWGQGTQVTVSS
polyreactivity (PSR sort gate): high polyreactivity

QVQLVESGGGLVQAGGSLRLSCAASGIILVYNAMGWYRQAPGKERELVAAISSSGGTTYYADSVKGRFTISRDNAKNTVYLQMNSLKPEDTAVYYCNAALPVTRSERYGSDYWGQGTQVTVSS
polyreactivity (PSR sort gate): low polyreactivity

QVQLVESGGGLVQAGGSLRLSCAGLRIYLPGYARGWYRQAPGKERELVAVISGSGSGTYYADSVKGRFTISRDNAKNTVYLQMNSLKPEDTAVYYCAADDVGRGSTPYDYWGQGTQVTVSS
polyreactivity (PSR sort gate): high polyreactivity

QVQLVESGGGLVQAGGSLRLSCAASGSNFNYYVMGGYRQAPGKERELVAAISRSGTSTYYADSVKGRFTISRDNAKNTVYLQMNRLKPEDSSVYYCAARVSHKYRTYYYWGQGTQVTVSS
polyreactivity (PSR sort gate): high polyreactivity

QVQLVESGGGLVQAGGSLRLSCAASGGTFALNAMGWYRQAPGKERELVADIDGRGGSTYYADSVKGRFTISRDNAKNTVYLQMNSLKPEVTAVYYCAARAPFLSVPSELDYWGQGTQVTVSS
polyreactivity (PSR sort gate): low polyreactivity

QVQLVESGGGLVQAGGSLRLSCAASGSIFGKYTMGWYRQAPGKERELVAGITYRAGSTYYADSVKGRFTISRDNAKNTVYLQMNSLKPEDTAVYYCAARFYFRWYYYGSYANYWGQGTQVTVSS
polyreactivity (PSR sort gate): high polyreactivity

QVQLVESGGVLVQAGGSLRLSCAASGRIFDYYAMGWYRKAPGKERELVAAITSGGTTTYYADSVKGRFTISRDNAKNTVYLQMKSLKPEDTAVYYCAKYPYHIYHTEGDYWGQATQVTVSS
polyreactivity (PSR sort gate): low polyreactivity

QVQLVQSGGGLVQAGGSLRLSYAASGRIFSPNAMGWYRQAPGKERELVAAISYRGANTYYADSVKGRFTISRDNAKNTVDLQMHSLKPEDTAVYYCATRSTHYWGQGTQVTVSS
polyreactivity (PSR sort gate): high polyreactivity

QVQLVESGGGLVQAGGSLRLSCADTGSTFYNYAMGWYRQAHGKERELVAAISSGGSTNYADSVKGLFTISRDNAKNTVYLKMNSLKPEDTAVYYCARRHRVYTSRIGHDYWGQGTQGTVSS
polyreactivity (PSR sort gate): low polyreactivity

QVQLVESGGGLVQAGGSLRLICAASGSIFRYYTMGWYRQGPGKERELVARISSSGSTNYADSVKGRFTISRDNAKNTVYLQMNSLKPEDTEVYYCAARAFSWAGYYYWGQGTQVTLSS
polyreactivity (PSR sort gate): low polyreactivity

RVQHVESGGGLVQAGGSLRLSCAASGYTFEAYAMGWYRPAPGKERELVAAINYSGGSTYADSVKGRFTISRDNAKNNVYLQMHSLKPEDTAVYYCATRLYGYWTYGFDYWGQGTQVTVSS
polyreactivity (PSR sort gate): low polyreactivity

QVQLVESGGGLVKAGGSLRLSCAASGRTFLRNAMGWYRQAPGKERELVATITRGGSTYYADSVKGRFTISRDNAKNSVYLQMNSLKPEDTAVYYCAKDITGGFRRPDYGYWGQGTQVTVSS
polyreactivity (PSR sort gate): low polyreactivity

QVQLVESGGGLVQAGGSLRLSCGASGLTFPLYAMGWYRQAPGKERELVAAITFSSGSTRYADSVKGRFTISRDNAKNTGSFQMNSLKPEDTALYYCAAVWYTYRTGPWYDYWGQGTQVTVSS
polyreactivity (PSR sort gate): high polyreactivity

QVQLVESGGGLVQAGGSLRLSCAASGRIIGNNAMGWYRHAPGKERELVATISSRGGSTYYAESVKGRFTISRDNAKNTVYFQMNSLKPEDTAVYYCKAYTTLAYDLDYWGQGTQVTVSS
polyreactivity (PSR sort gate): high polyreactivity

QVQLVESGGGLVQAGGSLRLSCAASGRTFPYNVMGWYRQAPRKERELVARITRGGSTDYADSVKGRFTISRDNAKNTVYLLMNSLKPEDTAVYYCAAAIGHFERFYWGQGTQVTVSS
polyreactivity (PSR sort gate): low polyreactivity

QVQLVESGVGLVQAGGSLRLSCASSGRTFPTYAMGWYRQAPGKERELVAAIRISGGRTYYADSVKGRFTISRDNAKNTVDLQMNSLKPEDTAVYYCAADTYASYESWGQGTQVSVSS
polyreactivity (PSR sort gate): high polyreactivity

QVQLVQSGGGLVQAGGSLRLSCAASGLIFTTNPMGWYRQAPGKERQFVAAISPSGGSTYYADSVKGRFTISRDNAKNTVYLQMNCLKPEDTAVYSCGARYSPVWHKYYYWGQGTQVTVSS
polyreactivity (PSR sort gate): high polyreactivity

QVQLVESGGGLVQAGGSLRLSCAASGSTFRVYAMGWYRQATGKERELVAAIRWRGVTTYADSVKGRFTISRDNAKNTVYLQMNSLKPEDTAVYYCARDVNYPGSEGDYWGQGTQVTVSS
polyreactivity (PSR sort gate): low polyreactivity
